Assay results as given in the Human Domainome abundance scans (Beltran et al. 2025).
± gives the uncertainty stated by the source.

B1: Chromodomain-helicase-DNA-binding protein 4, residues 444 to 496; numbered along this chain, Q14839 (parent)
chain: EDDHHMEFCRVCKDGGELLCCDTCPSSYHIHCLNPPLPEIPNGEWLCPRCTCP

Variants of: B1
Test: abundance fitness (aPCA) (normalised: wild type 0, dead -1); higher = more abundant; growth selection in yeast, the domain comes from the species named
Conditions: Homo sapiens

Row | Variant | abundance fitness
1 | D22F | 0.005 ± 0.057
2 | D22E | -0.055 ± 0.093
3 | D22Y | -0.112 ± 0.066
4 | D22Q | -0.067 ± 0.072
5 | D22M | -0.26 ± 0.072
6 | E7Q | -0.224 ± 0.074
7 | E7D | -0.048 ± 0.064
8 | E7M | -0.433 ± 0.05
9 | E7K | -0.492 ± 0.061
10 | E7L | -0.121 ± 0.042
11 | E7H | -0.22 ± 0.067
12 | E7F | -0.002 ± 0.06
13 | E7S | -0.364 ± 0.061
14 | C21G | -0.722 ± 0.054
15 | C21E | -0.239 ± 0.1
16 | C21T | -0.902 ± 0.079
17 | C21L | -1.07 ± 0.05
18 | C21F | -1.02 ± 0.12
19 | C21D | -0.875 ± 0.086
20 | S26W | -0.11 ± 0.068
21 | S26A | 0.104 ± 0.066
22 | S26K | -0.324 ± 0.049
23 | S26Q | 0.08 ± 0.072
24 | S26R | 0.003 ± 0.042

Row | Variant | abundance fitness
25 | S26L | -0.088 ± 0.048
26 | S26H | 0.021 ± 0.07
27 | S26E | 0.015 ± 0.052
28 | C20N | 0.14 ± 0.069
29 | C20R | 0.13 ± 0.048
30 | C20D | 0.012 ± 0.082
31 | C20K | 0.095 ± 0.078
32 | C20W | 0.069 ± 0.056
33 | C20P | 0.096 ± 0.057
34 | C20E | 0.136 ± 0.065
35 | C20M | 0.017 ± 0.064
36 | H31Y | -0.097 ± 0.046
37 | H31I | -0.217 ± 0.062
38 | H31D | -0.197 ± 0.081
39 | H31A | -0.138 ± 0.057
40 | H31N | 0.106 ± 0.074
41 | H31S | -0.203 ± 0.051
42 | H31R | -0.042 ± 0.053
43 | L19E | -0.632 ± 0.1
44 | L19M | 0.041 ± 0.066
45 | L19D | -0.354 ± 0.089
46 | L19Y | -0.276 ± 0.066
47 | L19R | -0.314 ± 0.044
48 | L19T | 0.037 ± 0.05

Row | Variant | abundance fitness
49 | L19V | -0.056 ± 0.059
50 | L19F | -0.262 ± 0.073
51 | H5Q | 0.074 ± 0.067
52 | H5R | 0.096 ± 0.043
53 | H5F | 0.219 ± 0.098
54 | H5P | -0.11 ± 0.051
55 | H5K | 0.199 ± 0.057
56 | E1I | -0.265 ± 0.35
57 | E1D | -0.693 ± 0.1
58 | E1F | -0.306 ± 0.38
59 | E1M | 0.156 ± 0.28
60 | E1P | -0.436 ± 0.22
61 | E1V | -0.059 ± 0.054
62 | E1A | -0.531 ± 0.13
63 | E1L | -0.235 ± 0.078
64 | E1W | -0.898 ± 0.43
65 | P41T | -0.114 ± 0.046
66 | P41R | -0.144 ± 0.053
67 | P41N | 0.029 ± 0.081
68 | P41L | -0.228 ± 0.056
69 | P41I | -0.106 ± 0.062
70 | P41C | -0.135 ± 0.092
71 | P41H | -0.142 ± 0.053
72 | P36V | -0.22 ± 0.068

Row | Variant | abundance fitness
73 | P36Y | -0.539 ± 0.06
74 | P36R | -0.095 ± 0.046
75 | P36I | -0.195 ± 0.054
76 | P36N | -0.294 ± 0.074
77 | P25I | -0.15 ± 0.051
78 | P25R | 0.032 ± 0.058
79 | P25D | -0.172 ± 0.089
80 | P25A | -0.124 ± 0.079
81 | P25H | -0.024 ± 0.045
82 | P25C | -0.087 ± 0.051
83 | P25L | -0.163 ± 0.044
84 | P48N | -0.54 ± 0.081
85 | P48A | -0.155 ± 0.046
86 | P48K | -0.397 ± 0.051
87 | P48G | -0.284 ± 0.053
88 | P48M | -0.363 ± 0.072
89 | P48H | -0.278 ± 0.055
90 | C50P | -0.755 ± 0.047
91 | C50T | -0.78 ± 0.051
92 | C50D | -0.633 ± 0.05
93 | C24A | -0.739 ± 0.05
94 | C24K | -0.702 ± 0.048
95 | C24S | -0.788 ± 0.064
96 | C24E | -1.09 ± 0.16

Row | Variant | abundance fitness
97 | C24N | -0.881 ± 0.11
98 | C24H | -0.909 ± 0.097
99 | C24P | -0.819 ± 0.064
100 | C24Y | -0.696 ± 0.1
101 | C24Q | -0.907 ± 0.078
102 | C24L | -0.816 ± 0.047
103 | C24M | -0.944 ± 0.058
104 | C24V | -0.617 ± 0.054
105 | F8E | 0.138 ± 0.082
106 | F8K | -0.103 ± 0.062
107 | F8L | -0.164 ± 0.051
108 | F8V | 0.012 ± 0.047
109 | F8W | -0.041 ± 0.062
110 | F8R | -0.033 ± 0.047
111 | L33C | -0.421 ± 0.051
112 | L33N | -0.732 ± 0.061
113 | C12L | -1.11 ± 0.06
114 | C12T | -0.769 ± 0.045
115 | C12A | -0.74 ± 0.06
116 | C12Q | -0.928 ± 0.092
117 | C12P | -1.12 ± 0.052
118 | C12N | -0.663 ± 0.051
119 | C12D | -0.749 ± 0.1
120 | L37Y | -0.274 ± 0.057

Row | Variant | abundance fitness
121 | L37R | -0.233 ± 0.051
122 | L37W | -0.248 ± 0.063
123 | L37E | -0.249 ± 0.094
124 | L37Q | -0.135 ± 0.054
125 | W45C | -0.616 ± 0.05
126 | W45H | -0.489 ± 0.065
127 | W45I | -0.533 ± 0.082
128 | W45T | -0.43 ± 0.047
129 | N42D | -0.085 ± 0.054
130 | N42I | -0.096 ± 0.055
131 | N42F | -0.219 ± 0.053
132 | N42M | -0.127 ± 0.06
133 | I30S | -0.018 ± 0.046
134 | I30M | 0.026 ± 0.062
135 | I30V | 0.005 ± 0.054
136 | I30K | -0.047 ± 0.08
137 | I30E | -0.072 ± 0.07
138 | I30G | -0.115 ± 0.058
139 | I30D | -0.473 ± 0.1
140 | I30C | -0.108 ± 0.076
141 | I30H | -0.106 ± 0.061
142 | I30Q | -0.159 ± 0.06
143 | Y28G | -0.605 ± 0.074
144 | Y28H | -0.54 ± 0.055

Row | Variant | abundance fitness
145 | Y28T | -0.531 ± 0.069
146 | M6G | -0.056 ± 0.049
147 | M6S | -0.147 ± 0.038
148 | M6D | 0.023 ± 0.05
149 | M6R | -0.477 ± 0.051
150 | M6T | 0.028 ± 0.047
151 | M6N | -0.055 ± 0.062
152 | R10K | 0.124 ± 0.045
153 | R10Y | -0.009 ± 0.064
154 | R10T | 0.028 ± 0.061
155 | R10G | -0.349 ± 0.062
156 | R10L | -0.021 ± 0.043
157 | R10P | -0.274 ± 0.049
158 | R10D | -0.142 ± 0.087
159 | D14N | -0.205 ± 0.062
160 | D14A | -0.068 ± 0.075
161 | G16C | -0.985 ± 0.19
162 | G16D | -0.275 ± 0.057
163 | G16T | -0.432 ± 0.056
164 | G16Q | -0.559 ± 0.059
165 | G16P | -1.18 ± 0.084
166 | G16A | -0.558 ± 0.078
167 | G16E | 0.019 ± 0.087
